Source: paper PMC2190859

Target: collagen
Test: cell adhesion assay

very late antigen 4 (VLA-4, alpha4 beta1 integrin) (from UniProt P13612;P05556) (receptor)
percent of cells binding: < 5%
